What was measured:
[1] = target: I-IIC-CFluc (carboxyl terminal portion of luciferase attached to I-IIC domain of CaV1.2) [luciferase: P08659]; assay: split firefly luciferase complementation in HEK cells
[2] = target: endogenous β-subunit of mouse heart (CaVβ) (mouse) (UniProt Q8CC27); assay: cell-based or functional assay
[3] = target: GKC-CFluc (carboxyl terminal portion of luciferase attached to GKC) [luciferase: P08659]; assay: split firefly luciferase complementation in HEK cells
[4] = target: endogenous β subunits of guinea pig ventricular cardiomyocytes (guinea pig); assay: cell-based or functional assay

NFluc-NSH3 (amino terminal portion of luciferase attached to NSH3), sequence (P08659 1-416): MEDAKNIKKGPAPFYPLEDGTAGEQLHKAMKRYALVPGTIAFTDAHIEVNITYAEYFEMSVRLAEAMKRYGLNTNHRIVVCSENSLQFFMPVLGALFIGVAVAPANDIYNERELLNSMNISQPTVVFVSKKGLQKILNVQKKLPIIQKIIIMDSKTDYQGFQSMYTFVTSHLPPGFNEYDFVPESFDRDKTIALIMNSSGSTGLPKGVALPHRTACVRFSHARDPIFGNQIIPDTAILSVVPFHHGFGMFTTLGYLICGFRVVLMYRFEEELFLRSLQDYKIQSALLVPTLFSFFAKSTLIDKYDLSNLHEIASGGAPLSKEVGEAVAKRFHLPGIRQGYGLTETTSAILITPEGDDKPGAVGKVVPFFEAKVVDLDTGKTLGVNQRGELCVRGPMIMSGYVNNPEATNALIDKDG
GKC-CFluc (carboxyl terminal portion of luciferase attached to GKC) [luciferase: P08659], sequence (P08659 398-550): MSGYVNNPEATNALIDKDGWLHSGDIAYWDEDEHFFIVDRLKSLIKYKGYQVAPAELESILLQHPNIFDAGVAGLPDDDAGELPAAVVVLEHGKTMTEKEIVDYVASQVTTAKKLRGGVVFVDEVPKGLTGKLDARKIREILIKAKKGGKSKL
I-IIC-CFluc (carboxyl terminal portion of luciferase attached to I-IIC domain of CaV1.2) [luciferase: P08659], sequence (P08659 398-550): as above
CaVB-NFluc (amino terminal portion of luciferase attached to CaVB), sequence (P08659 2-416): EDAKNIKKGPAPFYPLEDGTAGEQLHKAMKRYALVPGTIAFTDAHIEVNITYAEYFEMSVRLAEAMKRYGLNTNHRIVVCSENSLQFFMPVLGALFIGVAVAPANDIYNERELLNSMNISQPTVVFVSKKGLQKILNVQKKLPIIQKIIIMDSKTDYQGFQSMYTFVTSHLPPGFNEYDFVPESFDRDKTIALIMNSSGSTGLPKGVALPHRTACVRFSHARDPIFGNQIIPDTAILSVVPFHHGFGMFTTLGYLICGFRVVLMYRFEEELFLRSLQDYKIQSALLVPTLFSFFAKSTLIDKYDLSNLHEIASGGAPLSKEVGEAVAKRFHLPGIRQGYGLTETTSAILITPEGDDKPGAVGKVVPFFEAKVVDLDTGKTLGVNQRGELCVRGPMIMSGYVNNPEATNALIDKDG

CaVB-NFluc (amino terminal portion of luciferase attached to CaVB) (from UniProt P08659 2-416)
bioluminescence signal, fold over negative control [1]: 15 fold

N-terminal 3×FLAG-tagged dihydropyridine (DHP)-resistant (T1066Y/Q1070M) AID-mutant rabbit α1C (from UniProt P15381 1-2171)
increase in cardiac contractility by 200 nM isoproterenol (Langendorff hearts, nisoldipine present) [2]: 1.2 fold
increase in contractility in response to isoproterenol (isolated hearts, nisoldipine present) [2]: 0 to 25%
increase in fractional shortening by isoproterenol (cardiomyocytes, nisoldipine present) [2]: 25%

NFluc-NSH3 (amino terminal portion of luciferase attached to NSH3) (from UniProt P08659 1-416)
bioluminescence, fold over negative control cells [3]: 70 fold

YFP-tagged mutant (YWI/AAA) AID peptide
increase in whole-cell current amplitude by 1 µM forskolin [4]: 4 to 5 fold

pseudo-wild-type (pWT) α1C: transgenic FLAG-tagged DHP-resistant α1C subunit with wild-type AID (from UniProt P15381 1-2171)
increase in cardiac contractility by 200 nM isoproterenol (Langendorff hearts, nisoldipine present) [2]: 3.3 fold
increase in fractional shortening by isoproterenol (cardiomyocytes, nisoldipine present) [2]: 100%
increase of Ca2+ current by forskolin [2]: 1.8 fold
increase of nisoldipine-insensitive current by 200 nM isoproterenol [2]: 1.9 fold
shift of Vmid in the hyperpolarizing direction by 200 nM isoproterenol [2]: 4.4 mV

Source: US20190250145A1
